In paper PMC10786891, “Massively parallel profiling of RNA-targeting CRISPR-Cas13d”:

T1: EsCas13d, nuclease-dead (Eubacterium siraeum, UniProt B0MS50, R295A;H300A;R849A;H854A)
T1 sequence: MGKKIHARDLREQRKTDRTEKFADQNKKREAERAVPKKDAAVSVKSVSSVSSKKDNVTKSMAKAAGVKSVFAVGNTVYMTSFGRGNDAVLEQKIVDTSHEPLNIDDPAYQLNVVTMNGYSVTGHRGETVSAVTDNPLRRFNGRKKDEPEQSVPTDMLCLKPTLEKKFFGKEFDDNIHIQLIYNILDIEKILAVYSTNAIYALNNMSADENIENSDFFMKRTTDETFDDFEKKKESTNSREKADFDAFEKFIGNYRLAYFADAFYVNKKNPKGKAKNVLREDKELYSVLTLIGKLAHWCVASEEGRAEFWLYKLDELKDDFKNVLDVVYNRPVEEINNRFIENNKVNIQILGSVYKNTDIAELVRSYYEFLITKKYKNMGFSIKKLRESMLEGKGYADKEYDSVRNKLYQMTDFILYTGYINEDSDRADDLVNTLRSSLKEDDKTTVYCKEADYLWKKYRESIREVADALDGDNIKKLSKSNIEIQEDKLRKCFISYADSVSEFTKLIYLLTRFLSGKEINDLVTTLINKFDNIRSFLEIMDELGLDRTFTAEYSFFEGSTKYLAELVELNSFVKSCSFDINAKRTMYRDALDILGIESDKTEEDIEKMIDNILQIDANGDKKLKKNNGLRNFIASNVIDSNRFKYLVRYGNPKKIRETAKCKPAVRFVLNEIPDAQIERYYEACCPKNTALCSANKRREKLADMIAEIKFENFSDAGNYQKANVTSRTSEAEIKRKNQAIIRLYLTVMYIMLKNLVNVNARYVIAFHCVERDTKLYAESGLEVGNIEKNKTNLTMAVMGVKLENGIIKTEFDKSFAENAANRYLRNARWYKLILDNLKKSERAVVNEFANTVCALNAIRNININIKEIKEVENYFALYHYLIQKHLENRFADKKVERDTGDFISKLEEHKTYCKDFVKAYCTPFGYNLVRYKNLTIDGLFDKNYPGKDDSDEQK


Target: T1, EsCas13d, nuclease-dead
Test: crRNA (strand 1, pre-loaded); Mg2+; 40 mM Tris-HCl pH 7.5, 150 mM NaCl, 6 mM MgCl2, 1 mM DTT, 0.1% Tween-20, 0.2 mg/ml BSA; 25 C; 10 min per concentration, then washed
Conditions: tags: His6-TwinStrep-SUMO cleaved; N-terminal SNAP kept (SNAP-Surface 488); label: 3' end held by stalled T7 RNA polymerase

Binder | Kd [nM]
target 3 insA 3' of 7,insC 3' of 7 (mixed) RNA 1: CACCCGUGCAAAAUUGCAGGGGUCUAAAACGACCUGAAUAUUUCAGAUCAAA RNA 2: GGGAAUGGAUCCACAUCUACGAAUUCGUUUUUGAUCUGAAAUAUUACCAGGUCUGCAGAUCGGAAGAGCACACGU | 48 ± 5.5
target 3 C6A (mixed) RNA 1: CACCCGUGCAAAAUUGCAGGGGUCUAAAACGACCUGAAUAUUUCAGAUCAAA RNA 2: GGGAAUGGAUCCACAUCUACGAAUUCGUUUUUGAUCUGAAAUAUUAAGGUCUGCAGAUCGGAAGAGCACACGU | 36.2 ± 4.1
target 3 insA 3' of 7,insA 3' of 2 (mixed) RNA 1: CACCCGUGCAAAAUUGCAGGGGUCUAAAACGACCUGAAUAUUUCAGAUCAAA RNA 2: GGGAAUGGAUCCACAUCUACGAAUUCGUUUUUGAUCUGAAAUAUUACAGGUACUGCAGAUCGGAAGAGCACACGU | 51 ± 8
target 3 A5G,U7G (mixed) RNA 1: CACCCGUGCAAAAUUGCAGGGGUCUAAAACGACCUGAAUAUUUCAGAUCAAA RNA 2: GGGAAUGGAUCCACAUCUACGAAUUCGUUUUUGAUCUGAAAUAUGCGGGUCUGCAGAUCGGAAGAGCACACGU | 44 ± 6
target 3 insC 3' of 8,insC 3' of 7 (mixed) RNA 1: CACCCGUGCAAAAUUGCAGGGGUCUAAAACGACCUGAAUAUUUCAGAUCAAA RNA 2: GGGAAUGGAUCCACAUCUACGAAUUCGUUUUUGAUCUGAAAUAUCUCCAGGUCUGCAGAUCGGAAGAGCACACGU | 77.5 ± 16
target 3 insG 3' of 7 (mixed) RNA 1: CACCCGUGCAAAAUUGCAGGGGUCUAAAACGACCUGAAUAUUUCAGAUCAAA RNA 2: GGGAAUGGAUCCACAUCUACGAAUUCGUUUUUGAUCUGAAAUAUUGCAGGUCUGCAGAUCGGAAGAGCACACGU | 65.5 ± 13.5
target 3 C1G,U22A (mixed) RNA 1: CACCCGUGCAAAAUUGCAGGGGUCUAAAACGACCUGAAUAUUUCAGAUCAAA RNA 2: GGGAAUGGAUCCACAUCUACGAAUUCGUUAUUGAUCUGAAAUAUUCAGGUGUGCAGAUCGGAAGAGCACACGU | 25.1 ± 5.2
target 3 insU 3' of 14,insU 3' of 5 (mixed) RNA 1: CACCCGUGCAAAAUUGCAGGGGUCUAAAACGACCUGAAUAUUUCAGAUCAAA RNA 2: GGGAAUGGAUCCACAUCUACGAAUUCGUUUUUGAUCUGUAAAUAUUCAUGGUCUGCAGAUCGGAAGAGCACACGU | 83.5 ± 33.5
target 3 U2G,A12G (mixed) RNA 1: CACCCGUGCAAAAUUGCAGGGGUCUAAAACGACCUGAAUAUUUCAGAUCAAA RNA 2: GGGAAUGGAUCCACAUCUACGAAUUCGUUUUUGAUCUGAGAUAUUCAGGGCUGCAGAUCGGAAGAGCACACGU | 33.5 ± 6
target 3 insA 3' of 8,insG 3' of 5 (mixed) RNA 1: CACCCGUGCAAAAUUGCAGGGGUCUAAAACGACCUGAAUAUUUCAGAUCAAA RNA 2: GGGAAUGGAUCCACAUCUACGAAUUCGUUUUUGAUCUGAAAUAUAUCAGGGUCUGCAGAUCGGAAGAGCACACGU | 68 ± 15
target 3 C1A,U22A (mixed) RNA 1: CACCCGUGCAAAAUUGCAGGGGUCUAAAACGACCUGAAUAUUUCAGAUCAAA RNA 2: GGGAAUGGAUCCACAUCUACGAAUUCGUUAUUGAUCUGAAAUAUUCAGGUAUGCAGAUCGGAAGAGCACACGU | 13.6 ± 1.9
target 3 insU 3' of 22,insG 3' of 6 (mixed) RNA 1: CACCCGUGCAAAAUUGCAGGGGUCUAAAACGACCUGAAUAUUUCAGAUCAAA RNA 2: GGGAAUGGAUCCACAUCUACGAAUUCGUUUUUUGAUCUGAAAUAUUCGAGGUCUGCAGAUCGGAAGAGCACACGU | 7.7 ± 0.65
target 3 insC 3' of 19,insU 3' of 5 (mixed) RNA 1: CACCCGUGCAAAAUUGCAGGGGUCUAAAACGACCUGAAUAUUUCAGAUCAAA RNA 2: GGGAAUGGAUCCACAUCUACGAAUUCGUUUUUGCAUCUGAAAUAUUCAUGGUCUGCAGAUCGGAAGAGCACACGU | 130 ± 40
target 3 U8G (mixed) RNA 1: CACCCGUGCAAAAUUGCAGGGGUCUAAAACGACCUGAAUAUUUCAGAUCAAA RNA 2: GGGAAUGGAUCCACAUCUACGAAUUCGUUUUUGAUCUGAAAUAGUCAGGUCUGCAGAUCGGAAGAGCACACGU | 45 ± 6
target 3 insA 3' of 14 (mixed) RNA 1: CACCCGUGCAAAAUUGCAGGGGUCUAAAACGACCUGAAUAUUUCAGAUCAAA RNA 2: GGGAAUGGAUCCACAUCUACGAAUUCGUUUUUGAUCUGAAAAUAUUCAGGUCUGCAGAUCGGAAGAGCACACGU | 60 ± 12
target 3 C1U,U22A (mixed) RNA 1: CACCCGUGCAAAAUUGCAGGGGUCUAAAACGACCUGAAUAUUUCAGAUCAAA RNA 2: GGGAAUGGAUCCACAUCUACGAAUUCGUUAUUGAUCUGAAAUAUUCAGGUUUGCAGAUCGGAAGAGCACACGU | 25.9 ± 5.5
target 3 insC 3' of 9,insG 3' of 6 (mixed) RNA 1: CACCCGUGCAAAAUUGCAGGGGUCUAAAACGACCUGAAUAUUUCAGAUCAAA RNA 2: GGGAAUGGAUCCACAUCUACGAAUUCGUUUUUGAUCUGAAAUACUUCGAGGUCUGCAGAUCGGAAGAGCACACGU | 89 ± 23.5
target 3 C1G,C6A (mixed) RNA 1: CACCCGUGCAAAAUUGCAGGGGUCUAAAACGACCUGAAUAUUUCAGAUCAAA RNA 2: GGGAAUGGAUCCACAUCUACGAAUUCGUUUUUGAUCUGAAAUAUUAAGGUGUGCAGAUCGGAAGAGCACACGU | 30.5 ± 5
target 3 A12G,U22C (mixed) RNA 1: CACCCGUGCAAAAUUGCAGGGGUCUAAAACGACCUGAAUAUUUCAGAUCAAA RNA 2: GGGAAUGGAUCCACAUCUACGAAUUCGUUCUUGAUCUGAGAUAUUCAGGUCUGCAGAUCGGAAGAGCACACGU | 40.5 ± 8.5
target 3 insC 3' of 7,insA 3' of 4 (mixed) RNA 1: CACCCGUGCAAAAUUGCAGGGGUCUAAAACGACCUGAAUAUUUCAGAUCAAA RNA 2: GGGAAUGGAUCCACAUCUACGAAUUCGUUUUUGAUCUGAAAUAUUCCAGAGUCUGCAGAUCGGAAGAGCACACGU | 97 ± 35
target 3 U2G,U21C (mixed) RNA 1: CACCCGUGCAAAAUUGCAGGGGUCUAAAACGACCUGAAUAUUUCAGAUCAAA RNA 2: GGGAAUGGAUCCACAUCUACGAAUUCGUUUCUGAUCUGAAAUAUUCAGGGCUGCAGAUCGGAAGAGCACACGU | 60 ± 24.5
target 3 C1G,U8G (mixed) RNA 1: CACCCGUGCAAAAUUGCAGGGGUCUAAAACGACCUGAAUAUUUCAGAUCAAA RNA 2: GGGAAUGGAUCCACAUCUACGAAUUCGUUUUUGAUCUGAAAUAGUCAGGUGUGCAGAUCGGAAGAGCACACGU | 35 ± 6
target 3 U22A (mixed) RNA 1: CACCCGUGCAAAAUUGCAGGGGUCUAAAACGACCUGAAUAUUUCAGAUCAAA RNA 2: GGGAAUGGAUCCACAUCUACGAAUUCGUUAUUGAUCUGAAAUAUUCAGGUCUGCAGAUCGGAAGAGCACACGU | 14.8 ± 1.45
target 3 insU 3' of 14,insA 3' of 3 (mixed) RNA 1: CACCCGUGCAAAAUUGCAGGGGUCUAAAACGACCUGAAUAUUUCAGAUCAAA RNA 2: GGGAAUGGAUCCACAUCUACGAAUUCGUUUUUGAUCUGUAAAUAUUCAGGAUCUGCAGAUCGGAAGAGCACACGU | ~100
target 3 U2A,G3A (mixed) RNA 1: CACCCGUGCAAAAUUGCAGGGGUCUAAAACGACCUGAAUAUUUCAGAUCAAA RNA 2: GGGAAUGGAUCCACAUCUACGAAUUCGUUUUUGAUCUGAAAUAUUCAGAACUGCAGAUCGGAAGAGCACACGU | 38.5 ± 4
target 1 A9G,A18U (mixed) RNA 1: CACCCGUGCAAAAAUGCAGGGGUCUAAAACUGAGCGGAUAACCUCUCUAUGG RNA 2: GGGAAUGGAUCCACAUCUACGAAUUCGUACCAUUGAGAGGUUGUCCGCUCACCGAGAUCGGAAGAGCACACGU | 39.7 ± 3.1
target 1 U10G,A18U (mixed) RNA 1: CACCCGUGCAAAAAUGCAGGGGUCUAAAACUGAGCGGAUAACCUCUCUAUGG RNA 2: GGGAAUGGAUCCACAUCUACGAAUUCGUACCAUUGAGAGGUGAUCCGCUCACCGAGAUCGGAAGAGCACACGU | 57 ± 9
target 1 insU 3' of 14,insC 3' of 5 (mixed) RNA 1: CACCCGUGCAAAAAUGCAGGGGUCUAAAACUGAGCGGAUAACCUCUCUAUGG RNA 2: GGGAAUGGAUCCACAUCUACGAAUUCGUACCAUAGAGAUGGUUAUCCGCCUCACCGAGAUCGGAAGAGCACACGU | ~60
